The target in test [1] is T1, interleukin-2 alpha receptor (SYMANSIS, #4102H) to which a human immunoglobulin Fc region was linked (UniProt P01589 22-213, limits assumed).
T1 construct: Bought receptor-Fc, captured on anti-human immunoglobulin antibody; also called IL-2Rα; CD25; not shown: human immunoglobulin Fc region
T1 sequence (looked up): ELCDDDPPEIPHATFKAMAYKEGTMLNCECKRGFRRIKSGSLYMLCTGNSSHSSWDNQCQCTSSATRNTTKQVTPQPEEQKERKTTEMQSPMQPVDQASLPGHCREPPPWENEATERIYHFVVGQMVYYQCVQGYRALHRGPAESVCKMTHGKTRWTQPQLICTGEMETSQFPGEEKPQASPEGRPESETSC
Nature of the test: SPR (Biacore T200); receptor-Fc captured on anti-human Ig CM5 chip. Background: SPR reads the build-up and loss of mass on a sensor chip optically.

Test [2] has as its target T2, interleukin-2 beta receptor (SYMANSIS, #4122H) to which a human immunoglobulin Fc region was linked (UniProt P14784 27-239, limits assumed).
T2 construct: Bought receptor-Fc, captured on anti-human immunoglobulin antibody; also called IL-2Rβ; CD122; not shown: human immunoglobulin Fc region
T2 sequence (looked up): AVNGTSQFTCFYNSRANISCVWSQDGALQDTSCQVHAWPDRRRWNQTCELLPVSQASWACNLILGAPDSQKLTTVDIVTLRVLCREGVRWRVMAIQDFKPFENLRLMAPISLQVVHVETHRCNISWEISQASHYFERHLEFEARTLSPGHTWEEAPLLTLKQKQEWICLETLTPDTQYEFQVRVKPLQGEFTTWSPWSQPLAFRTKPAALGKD
Nature of the test: SPR (Biacore T200); receptor-Fc captured on anti-human Ig CM5 chip, analog flowed; relative to analog 1 = 100%. As to the method:
(§1) In order to measure the binding affinities of the interleukin-2 analogs obtained in Example 4 for each of interleukin-2 alpha and beta receptors, surface plasmon resonance (SPR, BIACORE T200, GE Healthcare) was used. The binding affinities of the prepared analogs for the alpha and beta receptors were measured, and the binding affinity of each of the prepared analogs was compared with that of interleukin-2 analog 1 (aldesleukin).
(§2) First, an anti-human immunoglobulin antibody (Abcam, #ab97221) was immobilized to a CM5 chip (GE healthcare) to about 5,000 resonance unit (RU) through amine coupling, and then the interleukin-2 alpha receptor ([…], #4102H) or interleukin-2 beta receptor ([…], #4122H), to each of which a human immunoglobulin Fc region was linked, was bound to the immunoglobulin antibody using an antigen-antibody binding reaction and thus finally immobilized. Thereafter, the recombinant interleukin-2 analog prepared above was diluted with HBS-P+ buffer (Cytiva, BR100671) to various concentrations by serial dilution, and the diluted samples were allowed to flow through CM5 chips, to which the interleukin-2 receptors were finally immobilized, to measure the binding affinity of each interleukin-2 receptor. […] Upon the completion of the measurement, the binding affinity of the receptor was evaluated according to the 1:1 binding fitting model in the Biaevaluation program.

The target in test [3] is T1, interleukin-2 alpha receptor (SYMANSIS, …). The test is described as above. As to the method:
as §1, §2

B1: interleukin-2 analog 20 (ligand)
chain: PTSSSTKKTQLQLEHLLLDLQMILNGINNYKNPKLTAMLTKKFYMPKKATELKHLQCLEEELKPLEEVLNLAQSKNFHLRPRDVVSNINVFVLELKGSETTFMCEYADETATIVEFLNRWITFSQSIISTLT
As for B1, the binding result in test [1] is “no binding”. The “Relative binding affinity (%)” value in test [2] amounted to 156%.

B2: interleukin-2 analog 53 (ligand)
chain: PTSSSTKKTQLQLEHLLLDLQMILNGINNYKNPKLTAMLTKKFYMPKKATELKHLQCLEEELKPLEEVLNLAQSKNFHFDPRELISNINVFVLELKGSETTFMCEYADETATIVEFLNRWITFSQSIISTLT
Take B2: the binding result in test [1] is recorded as “no binding”. Further, in test [2], the “Relative binding affinity (%)” value was 691%.

B3: interleukin-2 analog 21 (ligand)
chain: PTSSSTKKTQLQLEHLLLDLQMILNGINNYKNPKLTAMLTKKFYMPKKATELKHLQCLEEELKPLEEVLNLAQSKNFHFDPRDVVSNINVFVLELKGSETTFMCEYADETATIVEFLNRWITFSQSIISTLT
Regarding B3, the binding result in test [1] is on record as “no binding”. The “Relative binding affinity (%)” value in test [2] was 14100%.

B4: interleukin-2 analog 102 (ligand)
chain: PTSSSTKKTQLQLEHLLLDLQMILNGINNYKNPKLTRMLTFKFYMPKKATELKHLQCLEEELKPLEEVLNLAQSKNFHFEPRDVVSNINVIVLELKGSETTFMCEYADETATIVEFLNRWITFSQSIISTLT
As for B4, the “Relative binding affinity (%)” value in test [2] turned out to be 4450%; in test [3], 151%.

B5: interleukin-2 analog 52 (ligand)
chain: PTSSSTKKTQLQLEHLLLDLQMILNGINNYKNPKLTAMLTKKFYMPKKATELKHLQCLEEELKPLEEVLNLAQSKNFHFDPRDLISNINVFVLELKGSETTFMCEYADETATIVEFLNRWITFSQSIISTLT
Turning to B5, the binding result in test [1] was “no binding”. Besides, in test [2], the “Relative binding affinity (%)” value was 3820%.

B6: interleukin-2 analog 12 (ligand)
chain: PTSSSTKKTQLQLEHLLLDLQMILNGINNYKNPKLTAMLTKKFYMPKKATELKHLQCLEEELKPLEEVLNLAQSKNFHLRPRDLISNINVIVLELKGSETTFMCEYADETATIVEFLNRWITFSQSIISTLT
In the case of B6, the binding result in test [1] was “no binding”. Moreover, the “Relative binding affinity (%)” value in test [2] turned out to be 166%.

B7: interleukin-2 analog 15 (ligand)
chain: PTSSSTKKTQLQLEHLLLDLQMILNGINNYKNPKLTAMLTKKFYMPKKATELKHLQCLEEELKPLEEVLNLAQSKNFHLRPRELISNINVIVLELKGSETTFMCEYADETATIVEFLNRWITFSQSIISTLT
As for B7, the binding result in test [1] is on record as “no binding”. The “Relative binding affinity (%)” value in test [2] amounted to 98.1%.

B8: interleukin-2 analog 19 (ligand)
chain: PTSSSTKKTQLQLEHLLLDLQMILNGINNYKNPKLTAMLTKKFYMPKKATELKHLQCLEEELKPLEEVLNLAQSKNFHLDPRDLISNINVFVLELKGSETTFMCEYADETATIVEFLNRWITFSQSIISTLT
For B8, the binding result in test [1] was “no binding”. Besides, in test [2], the “Relative binding affinity (%)” value amounted to 455%.

B9: interleukin-2 analog 103 (ligand)
chain: PTSSSTKKTQLQLEHLRLDLEMILNGINNYKNPKLTAMLTFKFYMPKKATELKHLQCLEEELKPLEEVLNLAQSKNFHFEPRDVVSNINVFVLELKGSETTFMCEYADETATIVEFLNRWITFSQSIISTLT
Regarding B9, the “Relative binding affinity (%)” value in test [2] was determined as 13100%; in test [3], 6.1%.

B10: interleukin-2 analog 104 (ligand)
chain: PTSSSTKKTQLQLEHLRLDLEMILNGINNYKNPKLTRMLTFKFYMPKKATELKHLQCLEDELKPLEEVLNLAQSKNFHFEPRDVVSNINVFVLELKGSETTFMCEYADETATIVEFLNRWITFSQSIISTLT
Take B10: the “Relative binding affinity (%)” value came out at 25400% in test [2] and 122% in test [3].
